According to the DeepSol protein solubility set:

Experiment: soluble on expression in E. coli; label from the status in PepcDB or PDB records

Soluble on expression in E. coli, not soluble:
MGSDKIHHHHHHMLQPFLASADTFTQQHFANRHAILLKYPQSSAVTFAAAVWENSFHANALYFDVVGDVAWLPQLLEDLRQLADHHDRLQYSSYAAQSAVITQLQAKHFRAFRRTAMSDYRKVVATPEADVRSRSQLTSAQWHDVVQMSFANYVAAHADNPVTFNHATFEQQLAEAEDTQPSFLVENQQVQAYVFWFEDEPGALTSAWLGGQQFADIRRLLQTALFQVQARYSVVNGEFDDTDIHAWTVYQQLALPDPNPLISWQLLLDATRMP
MGSDKIHHHHHHMLSIAIAAEFELSEKIVETLEQTQLEIESLTIIEIKPFKEEQGIRFNNKAVVQIMPEEADWTEFNYVLFAGTIEHVDLLAKIADSGCIVIDVLGICASLANIPVVVPGINDDQLIELRQRNIVSLPNPQVTQCALAISNIVNSIHQLVVTSLLPASYVEAEQVAKLAGQTAQLLNGIPLDTEQQRLAFDVFPVQTQNLVIQLQKIYPQLENIVFHQIQVPVFYGMGQFVTALSDYLVDIESQLHFWQENELIQYHAEKLITPVTHGENENNEEKVKLHISTLSAAENKIEFWSVADEQHFNLALMAVKLLELIG
MGSDKIHHHHHHMLSLGLADSRAISKANSGSERHVREVIKRLSLRYKLYYLPTTHAFLDAISEDQLKEIKKFAKVPSFFEYLLDKKLGKVSLLRELFTFSPLAKELVREYEREIGILDFIYVPHTYRIQLMPSILFSKLSRGKYGMLLMTDPHNSLLEKESFFKCVNVWSKIWFSRKSAIEFCSFQRLQNIAFLLKAIKTKPSFISVMNKCALNYTGLPKYFNTKVLSPPHAFNNLALKYRNFDKEDYLVFLGRINTAKGANEALEVGKHVKLKMIGYKEQEFIVKQARSFGIEVIENVSEEEKFEILSKARALVLPSHQESFSVTILEALAVGTPVITYDLPSLTSTYNFKPVFFVKEFDVKGLVNTALEVYNMKKIEEMFNDERLEEFIKMHSSWDNVSNAVDKLITEAIQE
MGSDKIHHHHHHMLSLTEQLNRGPVVSDGAMATELEKRGVATNSALWSATAMLDHPDAIQAVHQSYLDAGAKIMTTNTYQANVPAFEQAGIAAVQARQLIQQAVTIAHTARDASHVTDAVIAGSIGPYGAYLADGSEYTGAYQLTPSAYQDFHRERLALIMAAGVDVLALETMPRLDEVQALVQLITTTWPQQPYWVSFSIKDPQTLCDGTSLAVAAKWVAAQPNVVAVGVNCTTLENIAPALTTLKAAVAVPLIVYPNSGDQYDPVTKTWQETHLSHQFASFVPQWLAAGARIIGGCCRTTPKDIATVARALSVSDSAKL
MGSDKIHHHHHHMLSRIAESLFWIGRYVERADGTARILDVHLERLNHLPTEERDNVARELLAVMGARPESDEFGLEELLHALAYDKQSATSIAGSLGAARENARRARETVSSGLWESLNTTYYGLNQHRKDVVGTYRFCHWVLERTAMVSGLADTTVSHDDSWLFLALGRSLERADMTARMLSTRDVLSAGMSWVNMLRCAGAYESFLRTRRAAFGDQHAAEFLLLDRLFPRSIVYALRDADECLAKLDPSAQRVGFINDARRIVGQARTFLEFHRTDDLMSELPEHMERVQKAVSQASDAISRKYFNQADELAWVGEVS
MGSDKIHHHHHHMLSRPVRILIADEIGLGKTIQALAIARYLELQGEAKKILILVPKILREQWKQEIRRLGGKPVVITNGSEVERKLLRKATFNNAAEYFVVSIDLAKSQNHSEKFSAIDWDLLIVDEVHNVTYNTQRYNFLKSLIEKSKEDLNIVFLSATPHRGNPKDYIERLRLLDPTLTADWNALDSEKFYRRTHGVLVFRRTKKVVNDLEKREIFKKCDFNAVIVDITEEEKRFFEELDEVLFEMVKDVHMNSPVALLAVLLRKRAASSYESALKTINNIIKNQYSGASGEDVLEDQIKQIFGLGYDEMELEENSEIDDLISSIINSVAKRYPLDKGQINALEKILKIGKAIGKNDSKLKTLAEVLAYHLKKNEKVIVFTEFKDTLEYLRNNLPTLLEQEGIHLSEEKDISVLHGGMKSEEIEKQVEKFANDGKLLISTDVASEGLNLQVANILINYEIPWSPIKLEQRVGRIWRLNQTKETIAYTLLLNHEADLQILESLYQKILNITDAVGTGPNVGKPVFGTRTLSGNFEYRLENVQDEETSDSPVSEFELMLSAIKRRNLDEQTKRIISTLKSLRTKIEEVVPLNTCNEIQEELNSVLLPDDMESEIVFEKLKKYISVFENSFINSIGSYLFKILTDRIHEPLLNEKCLKIAVKNESKEYRLFQVEVIDRGRKIYEYPVLIEIGGNVSPQLYRGTSLLEKLADVFSKEWFVIEWANPKEKMDIQTAKLIDRSAKDLQSIMDKHTDYDIKLNESLMKTDSLFRRLNTRSSEILRVEGLSDREFSVFKLLHPSILEILGLSLDSIELPPSDYEKWMERSFVPLEDILESERKAMEIVMDIEKKRLIEKYGESSDWKVEDVSLKEHYDIKVSEPEGEKYIEVKGHKPLWLSAELTAAEHRFANDNRDRYWIYIVSNLGGKKPVILKIFSPFDDEKRKIYLVHENKDIDITEIFGSTIKTKQRYVISLGQKIYRRR
MGSDKIHHHHHHMLTMIQQYHIKHLNFHKGKSLRSIAEETGHDFRTVKKYAEQTDFNEIRKPKRGRPSKLDPVKPIIDAWLKEDLNRPVKQRHTARRIYDRLCDEHQDIFNACERTVRTYVSARKKELYGEEEGYLPLEHPAGEAQVDFGEIVMIEQGQKVKGYELILSLPYSNAGYPQIFRGQNQECLLTGLKDIF
MGSDKIHHHHHHMLTQDQDQKQRNWKPIIKAFEAVLGTNGVVQRREELITYECDGLTSYRQRPAVAVLPRTTEQVAAVVKICNQYAVPFIARGSGTGLSGGALPSEDSVLIVTSLMRQILNVDLDNQRIVVQPGVINSWVTQTVSGAGFYYAPDPSSQIICSIGGNVAENSGGVHCLKYGVTTNHVLGLKIVTPEGEIVDLGGQIPEAPGYDLTGIFVGSEGTLGIATEITLRILKSAESICVLLADFTSVEAAGATVSDIISAGIIPGGMEMMDNVSINAVEDVVATNCYPRDATAILLVEIDGLDVEVAVNKQRVTDICQQNGARSVTSASDPETRLKLWKGRKAAFAAAGHLSPDYYVQDGVIPRTQLPYVLQEIEALSQKFGYPIANVFHAGDGNLHPLILFDNSISGALEKVEELGGEILKLCVRVGGSISGEHGIGADKKCYMPDMFSDVDLETMQWIRQVFNPQGLANPGKIFPTPRTCGEAANAIKNQHFEGVERF
MGSDKIHHHHHHMLTTRKALYYLDKGKTKEAIHLLETCWNQKVTAENKRDIFTATVLLSDVLYQSGERFPEIYQKLMSILEEMQDLEAVDFEREKAKQIFAELDEYFSEVGTFFQGHSLAELWLKFDSENDYKDVYPTPQRVAAIEAELGYKLPKSYIYLMRHTQNGGIVSTGSVPTTEPSSWSENCVAITGIMGIGDCGVSTLNGMHNTNFWTEEWGYPDVGLAIADCPSAGHDMVFLDYRNCGKTGEPAVVHIDQEGDYKILKLADNFEEFILSLYREEY
MGSDKIHHHHHHMLYPVKLLKDLVQIKTANPPGSEYESISFYLKDLFNDLGFQIQLIEIPEEYMDKYYIYSPSHKGNKRIIVIAKNSPNPILHFNFHYDVVPPGDGWLTNPFELKVVDNKAYGRGTSDMKGSIVSLYLALSRFNDLPIEIVFVPDEESGGIGTKYLTEEIRIAPSTAIFGEPSFPNVYIGHLGIVRGIIKIFGKQAHASNPKDGINAFLLASKLALKLQEKLGNEIVNLGGYTLNPTNNDGIVPGFFAFSYYRAIPPHDNRTPEFDKNVIDTTAREVGIEYNFEIKSFISGSVSNPDSSVAKAFKFCITSTLNVVPKELISNIRYDAVFYKNLDSINFGPGSLDQAHVPNEYVELDNIEKTIVIYECVMKRIYFNNYR
MGSDKIHHHHHHMMEGKDDADLFADLGLSESIASIPSYTFIRDGLNRIFASSNNIWNVLIGTRLTPPKPLSDYDLVHIHNPVPLAGMVSVALHCRIKGIPYCVTTHGISKVPKIPEELGLSRGQRIVFNHGFLRAYKNVLSNATHLFALSEGDQDTITEWFSDQSVSVLPNGVDLNVSPEAPEVDTKVDLPDKPVLLFVGRIMASKGVDDLLEAFSLLEHDCKLIIVGPMRDEHFKDQIHTLSDDVEYRGYVEQAELDALYRRADLFVFPTRSDVFPLVTLEAMAAGTPVVSTTVGGLPEQIPDQVGRLVPPKEPKTFAAAVDGMLSNEQLRTEMGRAGKSLVEERYSWEAVAKAAVTEYYRIVN
MGSDKIHHHHHHMMELINNRGMRDWMIFIKVAEVGNLSRAARELDISISAVSKSLSRLENSIEVTLLRRDSHHLELTGAGQTAYASMKRITSSFQSLLDELRNPDKIIRGSIKFSAPAIVCEFLANKWIWEFTASYPDTKIYLDSRERSDFFSKSLEFDELVFKSGIIESEDLVYRKISPLKLVLCASPKYIRKYGRISHPGDLENHIIVGLHNHGLSGPLTLFRQDESYTISGAVNVHLSSNNLLSVLNLVLEGKGINLMTPAWLATKYLKNNELEIILPEWRVPDLPIYLVWRHRQYYSPLFQRFLSFIEDKWNNRPQIDFLNDD
MGSDKIHHHHHHMMFGKSCQVMVKPTGSVCNLDCKYCFYLEKEKLYPDRKNHYKMSEETLELFIRQQIAAQDIDEVIFAWQGGEPTLMGIPFYRKAVEFQQRYCGGKTIVNTFQTNGILINDDWATFFREHDFLVGVSIDGDAALHDEWRVTRSGKPTHEKVENAVRCLAQHDVEFNTLTVVNRTNMHHPVQVYRYLKSIGSRYMQFIPLVERCGENGLAQPQDKHIAMTPWSVDSLQFGQFLNAVFDIWIREDIGDIGIQLFEQTLAAWCGLPPQVCVFAPTCGSAFAMEMNGDVYNCDHFVYPQFKLGNIHQKTLRQMNQGEQNRQFGSDKQRSMAQECHRCQWKFACYGGCPKHRFLPSASGATNHNYLCAGYQAFFSHTATAMSAMRTLYEKGISPAEIKSIFV
MGSDKIHHHHHHMMGMKETVSNIVTSQAEKGGVKHVYYVACGGSYAAFYPAKAFLEKEAKALTVGLYNSGEFINNPPVALGENAVVVVASHKGNTPETIKAAEIARQHGAPVIGLTWIMDSPLVAHCDYVETYTFGDGKDIAGEKTMKGLLSAVELLQQTEGYAHYDDFQDGVSKINRIVWRACEQVAERAQAFAQEYKDDKVIYTVASGAGYGAAYLQSICIFMEMQWIHSACIHSGEFFHGPFEITDANTPFFFQFSEGNTRAVDERALNFLKKYGRRIEVVDAKELGLSTIKTTVIDYFNHSLFNNVYPVYNRALAEARQHPLTTRRYMWKVEY
MGSDKIHHHHHHMMIKDLKAHYQLLYAQSGDSPAAVQYPTHDSQVVRFSILSHGIDKTCNIIDLGCGLADMLPYLRQNGFTGKYLGCDFVPEFIELAKGKYGEDLNAKFMEFNILQDEIPTGYDYVLISGIFNNKIKNNQEFIELALKESMAKVNIGVVFNALSDYVQYQDETLFYISPLSLFDYCKRNITPYVTLKHDYLTKPGGFPYEFTMSLRHKEAS
MGSDKIHHHHHHMMKTELHFKKSLLVSAVALATFALAGCANTAPQGKYVDGVHHVSGKGKKSDITLEVKVEQGNITQVKTLSHKETESLYLNAERLLPEIVSHNGHEGIDAISGATYSSNGILKAINDLPRIDGTKPEYQSVGARSQTGDDDFKLKWSIQPRLGLVKGDYYFEEARFRQGHMGSMLVVVDSNNLQDVILAEFNESGRPNYYTRLYQNVPKRMSEYNFSMGKKKGTAWVQSALTMEKLMMEKDQLTFELNPNYDPKLGNQLTEPNRLKYQGIDIVAGASNSIQQSMIPLTAKIHNRIQAGASDALFYQQAEKLLDEKGRWTGVTAMLRLVVDKNSHKITHAHYDEIFADEKKDIQDASLKAFYRQSKYDSINYVEPARIGFNVMIDALSLHLKEGGSLFNINDLPAAGDTGSYAQTGFTKRSDAWDNYLRLAGILYKQMRADGVINEHALPAQ
